Here are results for 18 molecules from paper PMC8011926 (Journal of Medicinal Chemistry, 2020).

Assay [1] deals with N/OFQ peptide (NOP) receptor fused to Renilla luciferase (UniProt P41146).
Assay [2] deals with T1, mu opioid receptor (mu-RLuc/Gβ1-RGFP) (Homo sapiens, UniProt P35372).
T1 construct: expressed in transfected cells; host or cells: SH-SY5Y (enriched plasma membranes)
It is filed as biochemical. On the procedure:
For this study, human embryonic kidney (HEK293) cells, permanently co-expressing the different pairs of fusion proteins NOP-RLuc/Gβ1-RGFP and NOP-RLuc/β-arrestin 2-RGFP, and SH-SY5Y cells stably, co-expressing the different pairs of fusion proteins mu-RLuc/Gβ1-RGFP and mu-RLuc/β-arrestin 2-RGFP or delta-RLuc/Gβ1-RGFP and delta-RLuc/β-arrestin 2-RGFP, were used. Cells were prepared and cultured, as described previously.[19],[23] […] The protein concentration in membrane preparations was determined using the QPRO-BCA kit (Cyanagen Srl, Bologna, IT) and the Ensight (PerkinElmer, Waltham, USA) in the spectrophotometer mode.
Luminescence in membranes was recorded in 96-well untreated white opaque microplates, while in whole cells, it was recorded in 96-well sterile poly-D-lysine-coated white opaque microplates (PerkinElmer, Waltham, MA, USA) using the luminometer Victor 2030 (PerkinElmer, Waltham, MA, USA). […] Coelenterazine at a final concentration of 5 μM was injected 15 min prior to reading the cell plate. Different concentrations of ligands in 20 μL of PBS–BSA 0.01% were added and incubated 5 min before reading luminescence. […] The BRET ratio was measured 15 min after agonist injection. […]
The pharmacological terminology adopted in this paper is consistent with IUPHAR recommendations.[68] All data are expressed as the mean ± sem of five independent experiments made in duplicate. […]

In assay [3] the target is N/OFQ peptide (NOP) receptor fused to Renilla luciferase (UniProt P41146). This is another data set of the same source.
The target is the same in assay [4]. This is another data set of the same source.

Where two headings read alike, the source gives them in different places. Non-standard residues stand in square brackets, D forms with d. Residues, ends and D or L forms follow the SMILES beside them. No end group written: not given here.

N/OFQ peptide (NOP) receptor fused to Renilla luciferase, sequence (P41146 whole entry, the tested form may be a part): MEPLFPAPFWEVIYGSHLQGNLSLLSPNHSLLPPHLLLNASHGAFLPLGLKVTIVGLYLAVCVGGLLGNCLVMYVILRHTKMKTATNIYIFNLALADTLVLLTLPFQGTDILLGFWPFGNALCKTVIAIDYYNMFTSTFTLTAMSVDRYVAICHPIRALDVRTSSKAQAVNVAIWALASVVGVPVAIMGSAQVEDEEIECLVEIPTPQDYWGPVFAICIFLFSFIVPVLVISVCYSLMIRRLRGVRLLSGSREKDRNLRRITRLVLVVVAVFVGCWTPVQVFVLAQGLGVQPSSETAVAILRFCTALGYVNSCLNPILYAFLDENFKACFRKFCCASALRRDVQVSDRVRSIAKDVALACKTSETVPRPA
T1 sequence (P35372 whole entry, species assumed): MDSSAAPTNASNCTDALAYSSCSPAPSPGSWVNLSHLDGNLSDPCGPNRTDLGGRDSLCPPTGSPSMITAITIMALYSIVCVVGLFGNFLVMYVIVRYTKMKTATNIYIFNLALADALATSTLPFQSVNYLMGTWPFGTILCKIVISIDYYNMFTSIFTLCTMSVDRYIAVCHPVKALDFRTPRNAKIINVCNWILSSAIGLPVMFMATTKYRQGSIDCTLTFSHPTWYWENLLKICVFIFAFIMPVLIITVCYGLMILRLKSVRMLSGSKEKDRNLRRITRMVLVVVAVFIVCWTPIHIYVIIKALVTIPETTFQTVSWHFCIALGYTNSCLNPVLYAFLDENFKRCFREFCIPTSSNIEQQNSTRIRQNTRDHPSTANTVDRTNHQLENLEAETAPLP

Take [AC5C^7]N/OFQ-NH2 (peptide): in assay [1], the pEC50 for promoting the NOP/G protein interaction (BRET, membranes with NOP-RLuc and Gβ1-RGFP) was 8.1 -log10 M; the pEC50 for promoting the NOP/β-arrestin 2 interaction (BRET, cells with NOP-RLuc and β-arrestin 2-RGFP) is 8.1 -log10 M.
Consider [Aib^11]N/OFQ-NH2 (peptide), for which, in assay [1], the pEC50 for promoting the NOP/G protein interaction (BRET, membranes with NOP-RLuc and Gβ1-RGFP) was 8.35 -log10 M; the pEC50 for promoting the NOP/β-arrestin 2 interaction (BRET, cells with NOP-RLuc and β-arrestin 2-RGFP) was 8.21 -log10 M.
Take [AC3C^7]N/OFQ-NH2 (peptide): in assay [1], the pEC50 for promoting the NOP/G protein interaction (BRET, membranes with NOP-RLuc and Gβ1-RGFP) is 7.67 -log10 M; the pEC50 for promoting the NOP/β-arrestin 2 interaction (BRET, cells with NOP-RLuc and β-arrestin 2-RGFP) was 7.56 -log10 M.
With `CSCC[C@H](NC(=O)[C@H](CC(C)C)NC(=O)[C@H](Cc1c[nH]cn1)NC(=O)[C@H](Cc1ccccc1)NC(=O)[C@@H](CCSC)NC(=O)[C@@H](N)Cc1ccc(O)cc1)C(=O)N[C@@H](CC(=O)O)C(N)=O` [Deltorphin A] (H-Y[dM]FHLMD-NH2), the “mu/G protein pEC50 (CL95%)” value in assay [2] is recorded as “crc incomplete”.
For [AC5C^11]N/OFQ-NH2 (peptide), in assay [1], the pEC50 for promoting the NOP/G protein interaction (BRET, membranes with NOP-RLuc and Gβ1-RGFP) was 8.61 -log10 M; the pEC50 for promoting the NOP/β-arrestin 2 interaction (BRET, cells with NOP-RLuc and β-arrestin 2-RGFP) is 8.22 -log10 M.
As to [Cha^1]N/OFQ(1–13)-NH2 (peptide), in assay [3], the pEC50 for promoting the NOP/G protein interaction (BRET, membranes with NOP-RLuc and Gβ1-RGFP) is 8.93 -log10 M; the pEC50 for promoting the NOP/β-arrestin 2 interaction (BRET, cells with NOP-RLuc and β-arrestin 2-RGFP) was 8.28 -log10 M.
With [Aib^7]N/OFQ-NH2 (peptide), in assay [1], the pEC50 for promoting the NOP/G protein interaction (BRET, membranes with NOP-RLuc and Gβ1-RGFP) is 8.92 -log10 M; the pEC50 for promoting the NOP/β-arrestin 2 interaction (BRET, cells with NOP-RLuc and β-arrestin 2-RGFP) is 8.4 -log10 M.
For the molecule FGAFTGARKSARK-NH2 [[Ala^3]N/OFQ(1–13)-NH2], in assay [4], the pEC50 for promoting the NOP/G protein interaction (BRET, membranes with NOP-RLuc and Gβ1-RGFP) is 7.88 -log10 M; the pEC50 for promoting the NOP/β-arrestin 2 interaction (BRET, cells with NOP-RLuc and β-arrestin 2-RGFP) is 7.54 -log10 M.
In the case of FGGFTGARKSAAK-NH2 [[Ala^12]N/OFQ(1–13)-NH2], in assay [4], the pEC50 for promoting the NOP/G protein interaction (BRET, membranes with NOP-RLuc and Gβ1-RGFP) was 7.31 -log10 M; the pEC50 for promoting the NOP/β-arrestin 2 interaction (BRET, cells with NOP-RLuc and β-arrestin 2-RGFP) is 6.85 -log10 M.
Take FAGFTGARKSARK-NH2 [[Ala^2]N/OFQ(1–13)-NH2]: the pEC50 for promoting the NOP/G protein interaction (BRET, membranes with NOP-RLuc and Gβ1-RGFP) in assay [4] was 6.36 -log10 M.
As for FGGFNGARKSARK-NH2 [[Asn^5]N/OFQ(1–13)-NH2], in assay [3], the pEC50 for promoting the NOP/G protein interaction (BRET, membranes with NOP-RLuc and Gβ1-RGFP) was 8.03 -log10 M; the pEC50 for promoting the NOP/β-arrestin 2 interaction (BRET, cells with NOP-RLuc and β-arrestin 2-RGFP) was 7.56 -log10 M.
Regarding FGGFTGARKSARA-NH2 [[Ala^13]N/OFQ(1–13)-NH2], in assay [4], the pEC50 for promoting the NOP/G protein interaction (BRET, membranes with NOP-RLuc and Gβ1-RGFP) was 7.91 -log10 M; the pEC50 for promoting the NOP/β-arrestin 2 interaction (BRET, cells with NOP-RLuc and β-arrestin 2-RGFP) was 7.88 -log10 M.
For AGGFTGARKSARK-NH2 [[Ala^1]N/OFQ(1–13)-NH2], in assay [4], the concentration ratio (EC50 of the ligand / EC50 of N/OFQ(1–13)-NH2) for promoting the NOP/G protein interaction (BRET, membranes); concentration–response curve incomplete stood at 700.
Turning to FGGFTGARKAARK-NH2 [[Ala^10]N/OFQ(1–13)-NH2], in assay [4], the pEC50 for promoting the NOP/G protein interaction (BRET, membranes with NOP-RLuc and Gβ1-RGFP) was 9.25 -log10 M; the pEC50 for promoting the NOP/β-arrestin 2 interaction (BRET, cells with NOP-RLuc and β-arrestin 2-RGFP) is 8.43 -log10 M.
On to FGGFVGARKSARK-NH2 [[Val^5]N/OFQ(1–13)-NH2], for which, in assay [3], the pEC50 for promoting the NOP/G protein interaction (BRET, membranes with NOP-RLuc and Gβ1-RGFP) is 7.94 -log10 M; the pEC50 for promoting the NOP/β-arrestin 2 interaction (BRET, cells with NOP-RLuc and β-arrestin 2-RGFP) was 7.38 -log10 M.
FGGATGARKSARK-NH2 [[Ala^4]N/OFQ(1–13)-NH2]: in assay [4], the concentration ratio (EC50 of the ligand / EC50 of N/OFQ(1–13)-NH2) for promoting the NOP/G protein interaction (BRET, membranes); concentration–response curve incomplete turned out to be 1000.

B1: [D-Ala^2]N/OFQ(1–13)-NH2 (peptide)
peptide: F[dA]GFTGARKSARK-NH2
modifications: N-terminus assumed
SMILES: C[C@H](NC(=O)CNC(=O)[C@@H](NC(=O)[C@H](Cc1ccccc1)NC(=O)CNC(=O)[C@@H](C)NC(=O)[C@@H](N)Cc1ccccc1)[C@@H](C)O)C(=O)N[C@@H](CCCNC(=N)N)C(=O)N[C@@H](CCCCN)C(=O)N[C@@H](CO)C(=O)N[C@@H](C)C(=O)N[C@@H](CCCNC(=N)N)C(=O)N[C@@H](CCCCN)C(N)=O
As for B1, in assay [3], the pEC50 for promoting the NOP/G protein interaction (BRET, membranes with NOP-RLuc and Gβ1-RGFP) was 7.57 -log10 M; the pEC50 for promoting the NOP/β-arrestin 2 interaction (BRET, cells with NOP-RLuc and β-arrestin 2-RGFP) was 7.16 -log10 M.
Turning to FGGWTGARKSARK-NH2 [[Trp^4]N/OFQ(1–13)-NH2], in assay [3], the pEC50 for promoting the NOP/G protein interaction (BRET, membranes with NOP-RLuc and Gβ1-RGFP) is 7.63 -log10 M; the pEC50 for promoting the NOP/β-arrestin 2 interaction (BRET, cells with NOP-RLuc and β-arrestin 2-RGFP) was 7.17 -log10 M.
